In article PMC12811900 (Nature microbiology, 2025):

Target: the molecule itself
Assay: cryo-EM structure

B1: Sth enolase, untagged, expressed in E. coli (enzyme, Streptococcus thermophilus DGCC7710)
chain: MSIITDVYAREVLDSRGNPTLEVEVYTESGAFGRGMVPSGASTGEHEAVELRDGDKARYGGLGTQKAVDNVNNVIAEHIIGFDVRDQQGIDRAMIALDGTPNKGKLGANAILGVSIAVARAAADYLEVPLYSYLGGFNTKVLPTPMMNIINGGSHSDAPIAFQEFMIVPAGAPTFKEALRWGAEIFHALKKILKERGLETAVGDEGGFAPRFNGTEDGVETIIKAIEAAGYVPGKDVFIGLDCASSEFYDAERKVYDYTKFEGEGAAVRTAAEQIDYLEELVNKYPIITIEDGMDENDWDGWKALTERLGGKVQLVGDDFFVTNTAYLEKGIAEHAANSILIKVNQIGTLTETFDAIEMAKEAGYTAVVSHRSGETEDSTIADIAVATNAGQIKTGSLSRTDRIAKYNQLLRIEDQLGEVAEYRGLKSFYNLKK
stoichiometry N: 8
